From patent US6245545

Test system: SwaI restriction endonuclease (native) (Staphylococcus warneri)
Test: cleavage_in_vitro
Conditions: more than 544,000 units in Source-15S fractions 17-19; restriction activity assayed on M13mp19 RF DNA

Substance: M13mp19 RF DNA
- activity: 544000 units
